Data published in the DeepSol protein solubility set.

Test: soluble on expression in E. coli; label from the status in PepcDB or PDB records

Row | Sequence | soluble on expression in E. coli
1 | MGSDKIHHHHHHMMSFREDKLLATNVPMRIVSLISKINEYKGKQVLYNQQAPEVLNTLKNVAIIQSTRASNSLEGITIKDTRLIDIMQNKVQPANRSEGEIAGYRDVLATIHSSYDAIPVKPSILLQFHRDLYRFISLEGGSWKNSDNAIEEVYPDGSKFVRFNPVSSFATPGAIEELCKFYNQYSNSGEIDSLMLISATILDFLCIHPFCDGNGRMARLLTLLLLYKEGYEVGRFISLEQIIEESKDAYYDTLYQSSQNWHEGKHDLLIWSEYLLGIILAAYKELMDRVGKVSRARGNKAMRVEETIDHFVSNFSINDIRRRCPDISPSTINRVLAKLRDANKIEVLGIGRGAKWKKNY | not soluble
2 | MKIRSTALVKGFRQSTPYVNAHRGKTMVIMLGGEAVAHNNFGNIINDIALMHSLGIKVVVVYGARPQINQLLEKQDLTTPYHKNIRITDEAALSVVMQAAGQLQLAITARLSMSLNNTPMAGTQLNVVSGNFVIAQPLGVDDGVDYCHSGRIRRIDTDAINRTLDQGSIVLLGPIASSVTGECFNLLSEEVATQLAIKLGADKLIGFCSEQGVIDDNGNAVAELLPIEAEHVIKTLSENHASDSDYNTGTLRFLKGSIAACRAGVPRSHLISYKVDGALIQELFSFDGIGTQVVMASAEQVRQAGIDDIGGILELIHPLEEQGILVRRSREQLEQEIGKFTIIEKDGLIIGCAALYPYSEERKAEMACVAIHPDYRDGNRGLLLLNYMKHRSKSENINQIFVLTTHSLHWFREQGFYEVGVDYLPGAKQGLYNFQRKSKILALDL | not soluble
3 | MPLDGEYEPSPTQWVREQVERYESSGGTEGTTLMDTGLPVIVLTTRGARSGKLRKTPLMRVEHEGRYAVVASLGGAPKHPVWYFNVKADPRVELQDGPVKQDMTAREVTGAEKARWWERAVAAYPSYADYQKKTEREIPVFVLEPSHAG | not soluble
4 | SLQMKNYQQTLKRMSDRSSGFLGVGVHKQKLGIGAIAIVVTDKDGEIVDCEMMSGVTVFSRFKPLTDFVGMSLNECKVLLQNESVDIALHGALKKIEEQMNRKENVTT | soluble
5 | MGFAKPPWGGKLKGVVRILGGKARGVALKVPASARPSPVRLRKALFDYLRLRYPRRGRFLDLFAGSGAVGLEAASEGWEAVLVEKDPEAVRLLKENVRRTGLGARVVALPVEVFLPEAKAQGERFTVAFMAPPYAMDLAALFGELLASGLVEAGGLYVLQHPKDLYLPLGERRVYGENALTLVEV | soluble
6 | MKLAVYSTKQYDKKYLQQVNESFGFELEFFDFLLTEKTAKTANGCEAVCIFVNDDGSRPVLEELKKHGVKYIALRCAGFNNVDLDAAKELGLKVVRVPAYDPEAVAEHAIGMMMTLNRRIHRAYQRTRDANFSLEGLTGFTMYGKTAGVIGTGKIGVAMLRILKGFGMRLLAFDPYPSAAALELGVEYVDLPTLFSESDVISLHCPLTPENYHLLNEAAFEQMKNGVMIVNTSRGALIDSQAAIEALKNQKIGSLGMDVYENERDLFFEDKSNDVIQDDVFRRLSACHNVLFTGHQAFLTAEALTSISQTTLQNLSNLEKGETCPNELV | soluble
7 | MVTQTNPVPVTYPTDAYIPTYLPDDKVSNLADLKKLIEMDSRLDLYLTRRRLDTSINLPTNTKTKDHPPNKEMLRIYVYNTTESSPRSDSGTPADSGKTTWTLRIEGKLLHESANGKHPFSEFLEGVAVDFKRLKPLGMGKKRKRDSSLSLPLNLQQPEYNDQDSTMGDNDNGEDEDSAEAESREEIVDALEWNYDENNVVEFDGIDIKRQGKDNLRCSITIQLRGVDGGKVQYSPNLATLIGMQTGSVNDAVYSIYKYILINNLFVTEQTEAQDGSNDAEDSSNENNNKNGAGDDDGVEGSTPKDKPELGEVKLDSLLQKVLDTNAAHLPLMNVVQTVNKLVSPLPPIILDYTIDLSKDTTYGATTLDVDVSHILHQPQPQPNLQKEEETDAEDTAKLREITKLALQLNSSAQKYQFFHELSLHPRETLTHYLWSSKQNELVLQGDQYFNEDAARTSDIYSNNNNDRSLMGNISLLYSQGRL | soluble
8 | MGGSHHHHHHGMASAQETNQTPGPMLCSTGCGFYGNPRTNGMCSVCYKEHLQRQQNSGRMSPMGTASGSNSPTSDSASVQRADTSLNNCEGAAGSTSEKSRNVPVAALPVTQQMTEMSISREDKITTPKTEVSEPVVTQPSPSVSQPSTSQSEEKAPELPKPKKNRCFMCRKKVGLTGFDCRCGNLFCGLHRYSDKHNCPYDYKAEAAAKIRKENPVVVAEKIQRI | not soluble
9 | MGSDKIHHHHHHMNNQEKNMLGFNQDEYLTSAREIIAARQKAEQVADEIYQAGFSSLFFASVGGSLAPMMAINEFAKELTTLPVYVEQAAELIHKGNKRLNKDSVVITLSKSGDTKESVAIAEWCKAQGIRVVAITKNADSPLAQAATWHIPMRHKNGVEYEYMLLYWLFFRVLSRNNEFASYDRFASQLEILPANLLKAKQKFDPQADAIASRYHNSDYMMWVGGAEMWGEVYLFSMCILEEMQWKRTRPVSSAEFFHGALELLEKDVPLILVKGEGKCRALDERVERFASKITDNLVVIDPKAYALDGIDDEFRWIMAPCVVSTLLVDRLAAHFEKYTGHSLDIRRYYRQFDY | soluble
10 | MDDRLFRNAMGKFATGVTVITTELNGAVHGMTANAFMSVSLNPKLVLVSIGEKAKMLEKIQQSKKYAVNILSQDQKVLSMNFAGQLEKPVDVQFEELGGLPVIKDALAQISCQVVNEVQAGDHTLFIGEVTDIKITEQDPLLFFSGKYHQLAQNEKVETSS | soluble
11 | MGSDKIHHHHHHMAQSSIEWTEMTWNPTTGCTKISAGCKFCYAEIMSKRLKAMGIDKYKDGFKVNIYPDALSIPYTWKSSKVVFVNSMSDLFHEDIPLDYIKKVFQVMNENPQHVFQVLTKRAERLFEVYKELKWTHNIWMGVSVENDKVKNRIDLLRKTSAKVKFLSLEPLIGPLPKLNLKKIDWVIVGGESGHRPRPMDSDWVLDIQEQCLKSDVAFFFKQWGGRNKKANGRLLNGRTYDEMPEIMEIEKVK | not soluble
12 | MSLKLVKLETFSTEFVCFVRATAEDGAQGWGQVAPYYADITAQVLHRQVAPYALGMACEDIDAMLDIVRDREHKFPGSYLRRAMGGVDTALWDMHGRRAGKPVCVLIGGTPGPVRAYGSSMKRDITPRDEAARLVRLRDEQGFDAFKFRIGAEVGRDRDEWPGRTEEIVPTMRRAMGDDVALLVDANSCYSPARAIEVGRMLEQHGISHYEEPCPYWEFAQTKEVTDTLDLDITGGEQDCLMERWQTMIADRVVDVLQPDICYLGGLSRTLRVARMAEAAGMPITPHAANLSMVTLFTMHLLRAIPNAGKYLEFSIEGLDYYPWQQGLFTSDPYRIEEGHATVTDAPGWGVDVNPDWLARSDYRVSELGEGHHHHHH | soluble
13 | MAHHHHHHMQETQELRCATTQMAPAVIFPLPPPLRGSYIDRKPTAASFNEHHATASFRHHMIASADVSHRPRHFYFASGTRNDTGTRSVKEGERKQLKQQTNVEVDSVAYGDQLDELSARWAAKFYGQVTFGPRNYPYPSSRWLARRFQMKKHRIIKRFRFRRYKLAAVANLPFAKMIRVGMLPELKSSKTKRGDVVDPTLSGQLVSAVKNTGEKRKGQRTRPKSKYQV | soluble
14 | MECYVFTPKGRIIKLPRGATIVDFAYAVHTDIGNSCVSARVNRILAPLHSVLENGQTIEIITAPWARPNPLEHHHHHH | not soluble
15 | MGSDKIHHHHHHMESYYAVLDAMAAAPGDGVFAIIIDVEGSAYQKEGTWMWIEASGKTTGLLSGGCFEEAVAAHALDVLSNRQATSISFDLRAEDDWSWGQGAGCNGLVRIWLEPVTSNTKPDWLALKRCLDRGEHVFMARSITDPREQPFFQSETGERFGGYSSPPRPEWLKELHGTPFFRGRNGVYETEEDTFFIQHFWPKPRLTIFGAGPDAPPLVSAAKAAGFSVTVSDWRPAFCQPSHVPDADAWVVGFPHETIPKLHLTERDFVVIMTHQFERDRELMRWLADIPLAYLGVLGPRRRTDRLFPSGTAPPFVRSPIGLPIGARSPHEIAISITAELINVLRGGPMETAR | not soluble
16 | MKTSDIHDVAIVGAGPAGLSAAYELIRTGFTPLVLERTPAVGDVWRNHYDGLRLNSGRFFSALPGSKFPLSAGGWPSRDEVVSLLETFPARGGFTVQTGIEVEKVSHDRERDIWLITSNDNRQFESRAVVIAAGANRIPIIPEWEGKNTFTGTIIHSSQFKSAQDYAGKHVLVVGSGNSAAEIASRLAKYADSVTMSVRTPPQILPKSIYGIPLIGIGVWTRYLPRALVDGLLNFLRRTMIGDLSVYGLPSPTISMSKQYAINNVVPILYGPFIDDVRSGRIKIVGPVQKISGGTVEVLSTVESALNGDQATTTLQPDIIVAGTGFRTGFPELIQVPGITDEKGRSKISGDQEFKGAPRLYFIGQINPLSGQLREIRLEAGRIARKLDKQLRAKLEHHHHHH | soluble
17 | MRIQIRYDDIDYLGHVNNARFLAYFEIGRLSYMKRFFNTRSAKDISMVIARAELDFERSVMFEDDIFVRTWISRVGNRSFDFSYTIEDDGGTVFCRGRTVNVFVEDGKPVSVPDFVKDLVISDVKT | not soluble
18 | SGRFSIKAKNYFLTYPKCDLTKENALSQITNLQTPTNKLFIKICRELHENGEPHLHILIQFEGKYNCTNQRFFDLVSPTRSAHFHPNIQGAKSSSDVKSYIDKDGDVLEWGTFQIDGR | soluble
19 | MGSDKIHHHHHHMITQQQIETVLGQIIDPTTGKDYLTSKAVSDIQIKQDNVSVNIELGYPAKSVLNTVHQQIEQAIRTVPGIGSITVNVTSNIIAHSAQRKLKLIPGVKNVIAVASGKGGVGKSATAVNLALALAAEGATVGILDADIYGPSQPQMLGVSGRPDSPDGKTIEPMQAHGIQMMSIGLLIDVETPMVWRGPMVTQALQQLLNDTRWHDLDYLVIDLPPGTGDIQLTLAQKIPVTGAVIVTTPQDIALLDARKGLKMFEKVGIPILGIVENMSLHTCSHCGHTEPIFGTGGGEKMCRDYNVELLGALPLDIRIREHTDAGKPSVVAEPDGQIADIYRTIARLVAAKISDMARDYSDVFTQIIMEDD | not soluble
20 | KMLDEKFYSKLLGEELDLIICLPPDFSPLYKYPLFIVQDGKDYFQFGKLARHSEELAVNEQIQKAIFIGIPYKTVMDRREKYHPDGEQNEAYIRFLAFELVPYLEERFPSFQMPTSRFL | not soluble
21 | MKNFVRTTLLAATLAGVSFGAFATAVPNPPLPAQDPIVQHLKLTNDQITRIKKLHQQLETDVSQISMKGIKDGALIEVIKSGKWDDAAVKQQLAAFSNIEQQARYYRVKYYFDLSKVLTPEQRQQVQQDLAQALELEHHHHHH | soluble
22 | MQGVPSNEPMLGQLTDNGRAAEAGLKEGDYIQSINGEKMRSWTDIVSAVKENPEKEMDVAVKRDNKTLHISVTPEAVKDENKKTIGRFGSYAPTEKGVLSAVAYGATSTVDVTKAILTNLSKLVTGQFKLDMLSGPVGIYDMTDQVAKTGI | not soluble
23 | MLKIISGKYRNQIIPTAKNIKYRPSTGKLKEAIFSILTSGEFTGNKLFNENTHILDLFAGSGSLAFESLSRGAGFATLIDIDTSSLKIAEGFAKSLNIENNVNFVNINALNLPKATRHLFKPAYREGSKGDTEHSTAAYTLVREDASTGSTFKLPLEAKFGKMSNKSFDLVFIDPPYHKNIVPKVMKLLIKNNWLKDGAIIVIEMAKTDDYILDENIEIIREKLYGKSKLLVLSFTVIPAKAGIQ | not soluble
24 | MKGLCSSDTRQYLPGHQLWEAPVQIRRYSAVIHHATKCQWGVIPSRTINVSLHQTRRMRVAAVGIGGAGGRIVERLWQDNERRETTYLGAACAVDTDTEALDELDALPADRRYAFGLSETNGTGTNGDRTSGTAAIEDERLEVRRAIDELVTSDIDAVVLVAGLAGGTGSGATAHIADALREVYSIPVYCLSVLPAGRDDDAAANTMQALRALESTVDGQILFDNEAWLGSGQTVESASETLNETIVARLGALFAAGEATAPDAVGQSVVDASEIINTLSDAGFTTLGYASQDLQTGAGSGDGTVIDQLKNRFLGDNADDVDEIEAYNAVETTLRRAVRGKLTAQCELDSADRALAVFAGPPAWLIRDAVTDGRRWLTEELQSPEVRSGLEHHHHHH | not soluble
